Measured values as given in the RNAGym collection of RNA variant scans (doi:10.1073/pnas.2313332121).

B1: TPR t1 (parent)
chain: GACCAAUCUGCCCUCAGAGCUCGAGAACAUCUUCGGAUGCAGAGGAGGCAGGCUUCGGUGGCGCGAUAGCGCCAACGUCCUCAACCUCCAAUGCAUCCCACCACAUGAUGAUGCCUGAAGAGCCUUGGUUUUUUG

Variants of: B1
Test: polymerase ribozyme fitness, log enrichment relative to wild type (log ratio); higher = more active; in vitro selection for triplet polymerase activity
Procedure, shortened: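 Each subunit of a heterodimeric triplet polymerase ribozyme was mutagenized into a library by PCR, transcribed, and subjected to one round of in vitro selection, run in triplicate. Libraries were annealed with a biotinylated primer, the partner subunit and triplets, incubated frozen at −7 °C, and extended constructs were gel-excised, captured on streptavidin beads and recovered by RT-PCR. Input and output libraries were sequenced on Illumina, keeping genotypes with ≥10 input reads and ≥1 read per output. Fitness is log base 2 of genotype enrichment divided by wild-type enrichment, from inverse-variance-weighted replicate averages.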

Variant	polymerase ribozyme fitness (log ratio)
GACCAAUCUGCCCUCAGAGCUCGAGAACAUCUUCGUAUGCAGAGGAGGCAGGCUUCGGUGGCGCGAUAGCGCCAACGUCCUCAACGUCCAAUGCAUCCCACCACAUGAUGAUGCCUGAAGAGCCUUGGUUUUUUG [G36U C86G]	-2.22
GAUCAAUCUGCCCUCAGAGCUCGAGAACAUCUUCGGAUGCAGAGGAGGCAGGCUCCGGUGGCGCGAUAGCGCCAACGUCCUCAACCUCUAAUGCAUCCCACCACAUGAUGAUGCUUGAAGAGCCUUGGUUUUUUG [C3U U55C C89U C115U]	-3.75
GACCAAUCUGCCCUCAGAGCUCGAGAACAUCUUCGGAUGCAGAGGAGGCAGGCUUCGGUGGCGUGAUAGCGCCAACGUCCUCAACCUCCAAUGCAUCCCACCACAUGAUGAUGCCUGAAAAGCCUUGGUUUUUUA [C64U G120A G135A]	0.278
GAGCAAUCUGCCCUCAGAGCUCGAGAACAUCUUCGGAUGCAGAGGAGGAAGGCUUCUGUGGCGUGAUAGCGCCAACGUCCUCAACCUCCAAUGCAUCCCACCACAUGAUGAUGCCUGAAUAGCCUUGUUUUUUUG [C3G C49A G57U C64U G120U G128U]	-1.81
GACCAAUCUGCCCUCAGAGCUCGAGAACAUCUUAGGAUGCAGAGGAGUCAGGCUUCGGUGGCGCGAUAGCGCCAACGUCCUCAACCUCCAAUGCAUCCCACCACAUGAUGAUGCCUGAAGUGCCUUGGUUUUUUG [C34A G48U A121U]	-1.3
GACCAAUCUGCCCUCAGAGCUCGAGAACAUCUUCGGAUGUAGAGUAGUCAGGCUUCGGUGGCGCGAUAGCGCCAACGUCCUGAGCCUCCAAUGCAUCCCACCACAUGAUGAUGCCUGAAAAGCCUUGGUUUUUUG [C40U G45U G48U C82G A84G G120A]	-2.88
GACCAGUCUGCACUCAGAGCUCGAGAACAUCUUCGGAUGCAGAGGAGGCAGGCUUCGGUGGCGCGAUAGCGCCAACGUCCUCAACCUCCAAUGCAUCCCACCACAUGAUGAUGCCUAAAGAGCCUUGGUUUUUUG [A6G C12A G117A]	-2.34
GACCAAUCUGCCCUCAGAGCUCGAGAACAUCUUCGGAUGCUGAGGAGGCAGGCUUCGGUGGCGCGAUAGCGCCAACGUCCUCAACCUCCAAUGCAUCCCACCACAUGAUGAUGCCUGAAGAGCCUUGGAUUUUUG [A41U U129A]	-2.58
GACCAAUCUGCCCUCAGAGCUCGAGAACAUCUUCGGAUGAAGAGUAGGCAGGCUUCGGUGGCGCGAUAGCGCCAACGUCCUCAACCUCCAAUGCAUCCCACCACAUGAUGAUGCCUGAAGAUCCUUGGUUUUUUG [C40A G45U G122U]	-2.79
GACCAAUCUGCCCUCAGAGCUCGAGAACAUCUUCGGAUGCAGAGGAGGCAAGCUUUGGUGGCGCGAUAGCGCCAACGUCCUCAGCCUCCAAUGCGACCCACCACAUGAUGAUGCCUGAAGAGCCUUGGUUUUUUG [G51A C56U A84G A95G U96A]	-5.06
GACCAAUCUGCCCUCAGAGCUCGAGAGCAUCUUCGGAUGCAGAGGAGGCAGGCUUCGGUGGCGCGAUAGCGUCAACGUCCUCAACCUCCAAUGCAUCCCACCACAUGAUGAUGCCUGAAGAGCCUUGGUUUUUUG [A27G C72U]	-1.76
GACCAAUCUUCCCUUAGAGCUCGAGAACAUCUUCGGAUGCAGAGGAGGCAGGCUUAGGUGGCGCGAUAGCGGCAACGUCCUCAACCUCCAAUGCAUCCCACCACAUGAUGAUGCCUGAAAAGCCUUGGUUUUUUG [G10U C15U C56A C72G G120A]	-0.935
GACCAAUCUUCCCUCAGAGCUCGAGAACAUCUUCGGAUGCAGAGGAGGCAGGCUUCGGUGGCGCGAUAGCACCAACGUCCUCAACCUCCAAUGCAUCCCACCUCAUGAUGAUGUCUGAAGAGCCUUGGUUUUUUG [G10U G71A A103U C114U]	-4.96
GACCAAUCUGCCCUCAGAGCUCGAGAACAUCUUCGGAUGCAGAGGAGGCAGGCUUCGGUGGCGCGAUAGCGCCAACGUCCUCAACCUCCAAUGCAUCCCAUCACAUGAUGAUGCCUGAAGAGCCUUGGUUUUUUU [C101U G135U]	-1.68
GACCAAUCUGCCCUCAGAGCUCGAGAACAUCUUCGGAUGCAGAGGAGGCAGGCUUCGGUGGCGCGAUAGCGCCAACGUCCUCAACCUCCCAUGCAUCCCACCACAUGAUGAUGCCUGAAUAGCCUUGGUUUUUUG [A90C G120U]	-1.31
GACCAAUCUGCCCUCAGAGCUCGAGGACAUCUUCGGAUGCAGAGGAGGCAGGCUUCGGUGGCGCGAUAGCGCCAACGUCCUCAACCUCCAAUGCAUCCCACCACAUGAUGAUGCCUGAAUAGCCUUGGUUUUUUG [A26G G120U]	-1.88
GACCAAUAUGCCCUCAGAGCUCGAGAACUUCUUCGGAUGCAGAGGAGGCAGGCUUCGGUGGCACGAUAGCGCCAACGUCCUCAACCUUCAUUGCAUCCCACCACAUGAUGAUGCCUGAAGAGUCUUGGUUUUUUG [C8A A29U G63A C88U A91U C123U]	-3.81
GACCAAUCUGCCCUCAGAGCUCGAGAACAUCUUAGGAUGCAGAGGAGGCAGGCUUCGGUAGCGCGAUAGCGCCAACGUCCUCAACCUCCAAUGCAUCCCACCGCAUGAUGAUGCCUGAAGAGCUUUGGUUUUUUA [C34A G60A A103G C124U G135A]	-5.23
GACCAAUCUGCCCUCAGAGCUCGAGAACAUCUUCGGAUGCAGAGGAGGCAAGCUUCGGUGGCGCGAUAGCACCAACGUCCUCAACCUCCAAUGCAUCCCACCACAUGAUGAUGCCUGAAGAGCCUUGGUUUUUUG [G51A G71A]	-4.53
GACCAAUCUGCCCUCAGAGCUCGAGAACAUCUUCGGAUGCAGUGGAGGCAGGCUUCGGUGGCGCGAUAGCGCCAACGUCCUCAACCUCCAAUGCAUCCCACCACAUGAUGACGCCUGAUGAGCCUUGGUUUUUUG [A43U U112C A119U]	-0.989
GACCAAUCUGCCCUCAGAGCUCGAGAACAUCUUCGGAUGCAGAGGAGGCAGGCUUCGGUGGCGCGAUAGCGCCAACGCCCUCACCCUCCAAUGCAUCCCACCACAUGAUGAUGCCUGAAGAGCCUUGGUUUUUUG [U78C A84C]	-0.194

Variant	polymerase ribozyme fitness (log ratio)
GACCAAACUGCCCUCAGAGCUCGAGAACAUCUUCGGAUGCAGAGGAGGCAGGCUUCGGUGGCGCGAUAGCGCCAACGCCCUCAACCUCCAAUUCAUCCCACCACAUGAUGAUCCCUGAAGAGCCUUGGUUUUUUG [U7A U78C G93U G113C]	-3.01
GAGCAAUCUGCCUUCAGAGCUCGAGAACAUCUUCGGAUGCAGAGGAGGCAGGCUUAGGUGGCGCGAUAGCGCCAACGUCCUCAACCUCCAAUGCAUCCCACCACAUGAUGAUGCCUGAAGAGCCUUGGUUUUUUG [C3G C13U C56A]	-2.3
GACCAAUCUGCCCUCAGAGCUCGAGAACAUCUUCGGAUGCAGAGGAGGCAGGCUUCGGAGUCGCGAUAGCGCCAACGUCCUCAUCCUCCAAUGCAUCCCACCACAUGAUGAUGCCUGAAGAGCCUUGGUUUUUUG [U59A G61U A84U]	-0.153
GAUCAAUCGGCCCUCAGAGCUCGAGAACAUCUUCGGAUGCAGAGAAGGCAUGGUUCGGUGGCGCGAUAGCGCCAACGUCCUCAACCUCCAAUGCAUCCCACCACAUGAUGAUGCCUGAAGAGACUUGGUUUUUUG [C3U U9G G45A G51U C53G C123A]	-5.27
GACCAAUCUGCCCUCAGAGCUUGAGAACAUCUUCGGAUGCAGAGGAGGCAGGCUUGGGUGGCGCGAUAGCGCCAACGUCCUCAACCUCCAAUGCAUCCCACCACAUGAUGAUGCCUGAAGAGCCUUGGUUUUUUG [C22U C56G]	-3.79
GACUAAUCUGCCCUCAGAGCUCGAGAACAUCUUCGGAUGCAGAGGAGGCAGGCUUCGGUGGCGCGAUAGCGCCAACGUCCUCAACCUCCAAUGCAUCCCACCACAUGAUGAUGCCUGAAGAGCCUUGGUUUUUUU [C4U G135U]	-1.43
GACCAAUCUGCCCUCAGAGCUCGAGAACAUCUUCGGAUGCAGAGGAGGCAGGCUUCGGUGGCGCGAUAGCGCCAACGUCCUCAACCUACAAUGCAGCCCACCACAUGAUGAUGCCUGAAGAGCCUUGGUUUUUUG [C88A U96G]	-0.386
GACCAAUCUGCCCUCAGAGCUCGAGAACAUCUUCGGAUGCAGAGGAGGCAGGCUUCGGUGGCGCGAUAGCGCCAACGUCCUCAACCUCCGAUGCAUCCCACCACAUGAUGAGGCCUGAAGAGCCUUGGUUUUUUG [A90G U112G]	1.3
GACCAAUCUGCCCUCAGAGCUCGAGAACAUCUUCGGAUGCAGAGGAGGCAGGCUUCGGUGGCGCGUUGGCGCCAACGUCCUCAACCUCCAAUGCAUCCCACCACAUGAUGAUGCCUGAAGAGCCUUGGUUUUUUG [A66U A68G]	-3.88
GACCAAUCAGCCCUCAGAGCUCGAGAACAUCUUCGGAUGCAGAGGAGGCAGGCUUCGGUGGCGCGAUAGCGCCAACGUCCUCAACCUCCAAUGCAUCCCACCACAUGAUGAUGACUGAAGAGCCUUGGUUUUUUG [U9A C114A]	0.123
GGCCAAUCUUCCCUCAGAGCUCGAGAACAUCUUCGGAUGCAGUGGAGGCAGGCUUCGGUGGGGCGAUAGCGCCAACGUUCUCAACCUCCAAUGCAUCCCACCACAUGAUGAUGCCUGAAGAGCCUUGGUUUUUUG [A2G G10U A43U C62G C79U]	-3.6
GACUAAUCUGCCCUCAGAGCUCGAGAACAUCUUCGGAUGCAGAGGAGGCAGGCUUCGGUGGCACGAUAGCGCCAACGUCCUCAACCUCCAAUGCAUCCCACCACAUGAUGAUGCCUGAAGAGCCUUGGUUUUUUG [C4U G63A]	-1.64
GACCAAUCUGCCCUCAGAACUCGAGAACAUCUUCGGAUGCAGAGGAGGCAGGCUUCGGUGGCGCGUUAGCGCCAACGUCCUCAACCUCCAAUGCAUCCCAUCACAUGAUGAUGCCUGAAGAGCCUUGGUUUUUUG [G19A A66U C101U]	-4.61
GACCAAUCUGCCCUCAGAGCUCGAGAACAUCUUCGGAUGCAGAUGAGGCAGGCUUCGGUGGAGCGAUAGCGCCAACGUCCUCAACCUCCGAUGCAUCCCACCACAUGAUGAUGCCUGAAGAGCCUUGGUUUUUUG [G44U C62A A90G]	-2.16
GACCAAUCUGCCCUCUGAGCUCGAGAACAUCUUAGGAUGCAGAGGAGGCAGGCUUCGGUGGCGAGAUAGCGCCAACGUCCUCAACCUCCAAUGCAUCCCACCACAUGAGGAUGCCUGAAGAGACUUGGGUUUUUG [A16U C34A C64A U109G C123A U129G]	-6.08
GACCAAUCUGCCCUCAGAGCUCGAGAACAUCUUCGGAUGCAGAGGAGGCAGGCUUCGGUGGUGCGAUAGCGCCAACGUCCUCAACCUCCAAUGCAUCCCACCACAUGAUGAUGCCUGAAGGGCCUUGGUUUUUUG [C62U A121G]	2.41
GACCAAUGUGCCCUCAGAGCUCGAGAACAUCUUCGGAUGAAGAGGAGGCAGGCUUCGGUGGCGCGAUAGGGCCAACGUCCUCAACCUCCAAUGCAUCCCACCACAUGAUGAUGACUGAAGAGCCUUGGUUUUUUG [C8G C40A C70G C114A]	-5.85
GACCAAUCUGCCCUCAGAGCUCGAGAACAUCUUCGGAUGCAGACGAGGCAGGCUUCGGUGGCGCGAUAACGCCAACGUCCUCAACCUCCAAUGCAUCCCACCACAUGAUGAUGCCCGAAGAGUCUUGGUUUUUUG [G44C G69A U116C C123U]	-5.92
GACCAAUCUGCCCUCAGAGCUCGAGAACAUCUUCGGAUGCAGAGGAGGCAUGCUUCGGUGGCGCGAUAGCGCCAACGUCCUCAACCUCAAAUGCAUCCCACCACAUGAUGAUGCCUGAAGAGCCUUGGUUUUUUG [G51U C89A]	-5.25
GACCAAUCUGCCCUCAGAGCUCGAGAACAUCUUCGGAUGCAGAGGAGGCAGGUUUCAGUCACGCGAUAGCGCCAACGUCCUCAACCUCCAAUGCAUCCCACCACAUGAUGAUGCUUGAAGAGCCUUGGUUUUUUG [C53U G57A G60C G61A C115U]	-4.03
GACCAAUCUGCCCUCAGAGCUCGAGAACAUCUUCGGAUGCAGUGGAGGCAGGCUUCGGUGGCGCGAUAGCGCCAUCGUCCUCAACCUCCAAUGCAUCCCACCACAUGAUGAUGCCUGAAGAGCCUGGGUUUUUUG [A43U A75U U126G]	-3.5
